The text below walks through data of patent US20210230599, “STEM-LOOP COMPOSITIONS AND METHODS FOR INHIBITING INTERLEUKIN-8” (VITRISA THERAPEUTICS, INC., published 2021).

Data set [1] addresses T1, Interleukin-8 (IL8, CXCL8), C-terminal His-tagged (Homo sapiens, UniProt P10145 SEQ:1-72). Nature of the data set: competition; competition TR-FRET. To be noted: tags: C-terminal 6xHis (Sino Biological). The method, then: (§1) To better understand the sequence requirements and to confirm the stem structures of members of the Aptamer 3 family as determined from sequence covariation analysis from both the primary and secondary (degenerate) selections, a series of variants which included mutations and deletions to the predicted stems were synthesized and screened (Table 24). Activity of each of these variants were tested using a time resolved competition TR-FRET assay in which the labeled parent Aptamer 3 was competed with increasing concentrations of unlabeled variants for binding to IL8 (FIG. 14). Briefly, 2-fold dilutions of thermally equilibrated aptamers were made in TR-FRET Buffer (50 mM MOPS, pH 7.4, 125 mM NaCl, 5 mM KCl, 50 μM CHAPS, 0.1 mg/mL BSA, 1 mM CaCl₂, and 1 mM MgCl₂). 5 μL of aptamer or control solution was added to 5 μl mix of 10 nM C-terminal His-tagged-IL8, 60 nM ALEXA FLUOR® 647-labeled Aptamer, and 5 nM anti-His-Eu (Perkin Elmer) in a black wall low volume 384 well plate (Greiner). For control, 5 μl of 1000-fold excess of unlabeled parent aptamer or 5 μl TR-FRET buffer alone was added to the mix of ALEXA FLUOR® 647-labeled aptamer, His-IL8, and anti-His-Eu. The plate was covered with a plate seal and subsequently incubated in the dark for 1 hour at room temperature. The plate was read on a Biotek CYTATION™ 5 plate reader. Samples were excited at 330 nm and fluorescent values were collected at 665 nm. Data analysis was performed by subtracting the background value and plotting as percent inhibition, normalized to baseline in the absence of competitor. The values were fit by [Inhibitor] vs. response—Variable slope (four parameters) using GraphPad Prism Version 7.0 and then normalized to aptamer control to obtain an IC₅₀ relative to parent aptamer. Data is presented as log values of relative IC₅₀.
A general note: Time-resolved FRET reads energy transfer from a long-lived donor to a nearby acceptor.

Data set [2] concerns the target T1, Interleukin-8 (IL8, CXCL8), C-terminal …. Nature of the data set: competition; competition TR-FRET. To be noted: tags: C-terminal His (Sino Biological); stem-loop. The method, then: as §1, with “Activity of each of these variants were tested using a time resolved competition TR-FRET assay in which the labeled parent Aptamer 3 was competed with increasing concentrations of unlabeled variants for binding to IL8 (FIG. 14).” left out
(§2) Like L1, most of L2 was also found to be 100% conserved in the degenerate selection, except residue U20, which was ˜92% conserved (FIG. 31). To test sequence requirements of L2, variants of Aptamer 32 were made, where each position of L2 was individually replaced with the other 3 bases and tested for binding in the competition TR-FRET assay.

The target is the same in data set [3]. Nature of the data set: competition; competition TR-FRET; L2 mutant. To be noted: tags: C-terminal 6xHis (Sino Biological). The method, then: as §1, with “Activity” for “To better understand the sequence requirements and to confirm the stem structures of members of the Aptamer 3 family as determined from sequence covariation analysis from both the primary and secondary (degenerate) selections, a series of variants which included mutations and deletions to the predicted stems were synthesized and screened (Table 24). Activity”
as §2

Data set [4] shares this target. Nature of the data set: competition; competition TR-FRET. The conditions noted are these: tags: C-terminal 6xHis (Sino Biological). The method, then:
as §1, with “Activity” for “To better understand the sequence requirements and to confirm the stem structures of members of the Aptamer 3 family as determined from sequence covariation analysis from both the primary and secondary (degenerate) selections, a series of variants which included mutations and deletions to the predicted stems were synthesized and screened (Table 24). Activity”
Variants of Aptamers 94, 99, and 100 were synthesized with an optimized stem S1 and G18 was also replaced with a Sp3 spacer to see if further improvements could be made to these molecules (Table 30 and FIG. 20).
This is another data set of the same source.

With GCGACGGCAGAUUACGGGUAGAGUGGCCGCGC (ssRNA, 2'-F G, 2'-OMe A/C/U, 5' C6NH2, 3' idT) [Aptamer 43], in data set [1], the binding signal was over 10 fold worse than Aptamer 3.

Take CGGUGGGAAAUGUGUGAUGGGUUGCCG (ssRNA, 2'-F G; 2'-OMe A,C,U; 5' C6NH2; 3' idT) [Aptamer 173]: the binding signal in data set [2] was over 10 fold worse than Aptamer 8. CGGUGGGAAAUGUGCGAUGGGUUGCCG (ssRNA, 2'-F G, 2'-OMe A/C/U, 5' C6NH2, 3' idT) [Aptamer 171] displayed a binding signal in data set [3] of over 10 fold worse than Aptamer 8. The same measure, in the same setting: with CGGUGGGAAAUGUGACAUGGGUUGCCG (ssRNA, 2'-F G, 2'-OMe A/C/U, 5' C6NH2, 3' idT) [Aptamer 174] the figure was over 10 fold worse than Aptamer 8. The molecule CGGUGGGAAAUGUUAGAUGGGUUGCCG (ssRNA, 2'-F G; 2'-OMe A,C,U; 5' C6NH2; 3' idT) [Aptamer 170] came in with a binding signal in data set [2] of over 10 fold worse than Aptamer 8. In turn, CGGUGGGAAAUGUGAGUUGGGUUGCCG (ssRNA, 2'-F G; 2'-OMe A,C,U; 5' C6NH2; 3' idT) [Aptamer 179] yielded a binding signal in data set [2] of over 10 fold worse than Aptamer 8. As to UGAUGACAGUAGAUUACGGGUAGAGUGACUGCAUCU (ssRNA, 2'-F G, 2'-OMe A/C/U, 5' C6NH2, 3' idT) [Aptamer 185], in data set [1], the binding result is reported as “binds”. As for UGAUGACGAUAGAUUACGGGUAGAGUGAUCGCAUCU (ssRNA, 2'-F G, 2'-OMe A/C/U, 5' C6NH2, 3' idT) [Aptamer 186], the binding result in data set [1] is on record as “binds”. For the molecule UCUUGACGGUAGAUUACGGGUAGAGUGACCGCAUCU (ssRNA, 2'-F G, 2'-OMe A/C/U, 5' C6NH2, 3' idT) [Aptamer 187], the binding result in data set [1] is on record as “binds”. In turn, CGGUGGGAAAUGUGAUAUGGGUUGCCG (ssRNA, 2'-F G; 2'-OMe A,C,U; 5' C6NH2; 3' idT) [Aptamer 176] returned a binding signal in data set [2] of over 10 fold worse than Aptamer 8. In data set [3], CGGUGGGAAAUGUGAGAGGGGUUGCCG (ssRNA, 2'-F G, 2'-OMe A/C/U, 5' C6NH2, 3' idT) [Aptamer 180] returned a binding signal of over 10 fold worse than Aptamer 8. Molecule CGGUGGGAAAUGUAAGAUGGGUUGCCG (ssRNA, 2'-F G; 2'-OMe A,C,U; 5' C6NH2; 3' idT) [Aptamer 169] yielded a binding signal in data set [2] of over 10 fold worse than Aptamer 8. For GAUGACGGUAGAUUUCGGGUAGUGUGACCGCAUC (ssRNA, 2'-F G, 2'-OMe A/C/U, 5' C6NH2, 3' idT) [Aptamer 142], the binding result in data set [4] is “binds”.

As to GAUGACGGUAGAUUAUGGGCAGUGUGACCGCAUC (ssRNA, 2'-F G, 2'-OMe A/C/U, 5' C6NH2, 3' idT) [Aptamer 146], in data set [4], the binding result is “binds”. The same measure, in the same setting: with GAUGACGGUAGAUUAUGGGAAGUGUGACCGCAUC (ssRNA, 2'-F G, 2'-OMe A/C/U, 5' C6NH2, 3' idT) [Aptamer 150] the entry was “binds”.

CGGUGGGAAAUGUCAGAUGGGUUGCCG (ssRNA, 2'-F G, 2'-OMe A/C/U, 5' C6NH2, 3' idT) [Aptamer 168]: the binding signal in data set [3] is over 10 fold worse than Aptamer 8. On to GCGACGGUAGAUUAUGGGAAGUGUGACCGCGC (ssRNA, 2'-F G, 2'-OMe A/C/U, 5' C6NH2, 3' idT) [Aptamer 152], for which, in data set [4], the binding result was “binds”. Take CGGUGGGAAAUGUGAGGUGGGUUGCCG (ssRNA, 2'-F G, 2'-OMe A/C/U, 5' C6NH2, 3' idT) [Aptamer 178]: the binding signal in data set [3] is over 10 fold worse than Aptamer 8. Molecule CGGUGGGAAAUGUGAAAUGGGUUGCCG (ssRNA, 2'-F G; 2'-OMe A,C,U; 5' C6NH2; 3' idT) [Aptamer 175] showed a binding signal in data set [2] of over 10 fold worse than Aptamer 8. On to GGCGACGGUAGAUUAUGGGAAGUGUGACCGCGCC (ssRNA, 2'-F G, 2'-OMe A/C/U, 5' C6NH2, 3' idT) [Aptamer 151], for which the binding result in data set [4] is “binds”.

In data set [3], CGGUGGGAAAUGUGGGAUGGGUUGCCG (ssRNA, 2'-F G, 2'-OMe A/C/U, 5' C6NH2, 3' idT) [Aptamer 172] registered a binding signal of over 10 fold worse than Aptamer 8.
